One may read the IC50 as the point on the concentration scale where inhibition reaches its midpoint. Broadly, the Kd is the constant that tells how readily two partners part at equilibrium. Read a high Kd as a looser complex. By koff is commonly meant the rate constant with which the complex falls apart. The term kon denotes a measure of how fast the partners come together.

Data on 6 molecules can be found in patent publication US20240368264A1 (SHANGHAI NOVAMAB BIOPHARMACEUTICALS, published 2024).

For one assay, the target named is human TSLP factor (human, UniProt Q969D9 29-159). In words: cell-based or functional assay.
Assay [1] has as its target Human TSLP antigen protein (human, UniProt Q969D9 29-159). In words: blocking ELISA: human TSLP coated, antibody dilutions with 0.02 ug/mL biotinylated TSLPR, SA-HRP, OD450; blocked partner: biotinylated TSLPR protein. The procedure: The above purified bivalent humanized antibodies were subjected to ELISA to detect blocking activity. […] After washing 5 times with PBST, 100 uL of TMB color-substrate solution was added and colour development at 37° C. for 10 min. The reaction was terminated by adding 2M H₂SO₄ 50 uL/well, and the absorption value was measured at 450 nm on an microplate reader.
Background: In an ELISA, binding on a coated surface is turned into a signal by an enzyme label.

Another assay addresses TSLP-Fc antigen. In words: BLI (Fortebio): antibody captured on Protein A probe, TSLP-Fc antigen 2-fold from 20 nM, global fit. The procedure:
The binding kinetics of 14 blocking TSLP nanobodies were measured by Bio-layer interferometry (BLI). For kinetic measurements, candidate antibodies were diluted to 5 ug/mL in PBST buffer, TSLP-Fc antigen diluted in PBST buffer in 2-fold gradients in six concentration gradients (2-fold gradient dilution from 20 nM), and set the instrument operating conditions: Temperature 30° C., Shake speed 1000 rpm. Antibodies were captured using a probe already encapsulated with Protein A, capture time 60 s; Binding of gradient diluted antigen, binding time 240 s; dissociation time 300 s; 10 mM glycine (pH 1.7) regenerated 2 times for 5 s each. Fortebio Analysis version 9.0 was used to perform the analysis, Global mode was fitted and the binding rate (Kon), dissociation rate (Kdis) and dissociation constant KD were calculated.
(In general: Biolayer interferometry detects binding as a change in optical thickness at a sensor tip.)

The target of a further assay is TSLP-Biotin protein (UniProt Q969D9 29-159, biotinylated (site not stated)). Put plainly: flow cytometry blocking assay: antibody diluted 2-fold from 20 ug/mL with TSLP-Biotin on HEK293F/TSLPR transient cells, SA-PE, MFI; blocked partner: TSLPR on the cells. The procedure:
The above 31 purified antibodies were again subjected to flow cytometry blocking activity assay. […] Centrifuged again and discard supernatant, add 200 uL PBS per well to resuspend cells, flow cytometry was performed to detect PE signal of sample.
For orientation: Flow cytometry measures light scatter and fluorescence of single cells or particles in a stream.

B1: Bi-HuNb10-63 (VHH)
chain: EVQLLESGGGLVQPGGSLRLSCTASGFTLDDSDMGWYRQAPGDECELVSTISSLGGTYYADSVKGRFTISHDNAKNTVYLQMNSLKPHDTAVYYCAPGTDRYSDCPNEYSVWGQGTLVTVSSGGGGSGGGGSGGGGSGGGGSEVQLLESGGGLVQPGGSLRLSCTASGFTLDDSDMGWYRQAPGDECELVSTISSLGGTYYADSVKGRFTISHDNAKNTVYLQMNSLKPHDTAVYYCAPGTDRYSDCPNEYSVWGQGTLVTVSS
notes: also called humanized bivalent antibody; bivalent single domain antibody
Take B1: in the assay with human TSLP factor, the “IC50 of inhibition of hTSLP-induced pSTAT5 (PE MFI, flow cytometry) in BaF3/TSLPR-IL7R cells” value (“IC50 of inhibition … in BaF3/TSLPR-IL7R cells” below) amounted to 0.472 ug/ml. The half-inhibitory concentration (IC50) in assay [1] is 0.0824 µg/mL.

B2: Nb10-63 (VHH)
VHH: QVQLQESGGGSVQAGGSLRLSCTASGFTLDDSDMGWYRQAPGDECELVSTISSLGGTYYADSVKGRFTISHDNAKNTVYLQMNSLKPHDTAVYYCAPGTDRYSDCPNEYSVWGQGTQVTVSS
notes: Camel nanobody before humanization
In the case of B2, in the assay with TSLP-Fc antigen, the Kd worked out at 0.0945 nM, the koff is 0.000263 s⁻¹ and the kon came to 2.78e+06 M⁻¹ s⁻¹.

B3: Bi-HuNb7-54 (VHH)
chain: EVQLLESGGGLVQPGETLRLSCTASGFTFDDSDMGWYRQAPGNECELVSIISSDGMTYYADSVKGRFTISQDNAKNTVYLQMNSLKPEDTAVYYCAATKYSSDYDVAEDWRRGVCGDMDYWGKGTLVTVSSGGGGSGGGGSGGGGSGGGGSEVQLLESGGGLVQPGETLRLSCTASGFTFDDSDMGWYRQAPGNECELVSIISSDGMTYYADSVKGRFTISQDNAKNTVYLQMNSLKPEDTAVYYCAATKYSSDYDVAEDWRRGVCGDMDYWGKGTLVTVSS
notes: as for B1
On to B3, for which the “IC50 of inhibition … in BaF3/TSLPR-IL7R cells” value with human TSLP factor worked out at 0.0198 ug/ml. The molecule further displayed an IC50 in assay [1] of 0.141 µg/mL.

B4: Nb7-54 (VHH)
VHH: QVQLQESGGGSVQAGETLRLSCTASGFTFDDSDMGWYRQAPGNECELVSIISSDGMTYYADSVKGRFTISQDNAKNTVYLQMNSLKPEDTAVYYCAATKYSSDYDVAEDWRRGVCGDMDYWGKGTQVTVSS
notes: as for B2
With B4, the “IC50 (read off the curve)” value with TSLP-Biotin protein was around 0.2 µg/mL. Further, in the assay with TSLP-Fc antigen, the affinity, expressed as Kd, was 0.226 nM; the koff was 0.000588 s⁻¹; the kon was 2.61e+06 M⁻¹ s⁻¹.

B5: Bi-HuNb5-31 (VHH)
chain: EVQLLESGGGLVQPGGSLRLSCTASGFTSGGSDMGWYRQAPGNECDLVSYISSDGSTYYADSVKGRFTISQDNAKNTVYLQMNSLKPEDTAVYYCAATDYGLGPPPSSTGQCYGMDYWGKGTLVTVSSGGGGSGGGGSGGGGSGGGGSEVQLLESGGGLVQPGGSLRLSCTASGFTSGGSDMGWYRQAPGNECDLVSYISSDGSTYYADSVKGRFTISQDNAKNTVYLQMNSLKPEDTAVYYCAATDYGLGPPPSSTGQCYGMDYWGKGTLVTVSS
notes: as for B1
For the molecule B5, the “IC50 of inhibition … in BaF3/TSLPR-IL7R cells” value in the assay with human TSLP factor was 0.0797 ug/ml. For the same molecule, the IC50 in assay [1] was determined as 0.0759 µg/mL.

B6: Nb5-31 (VHH)
VHH: QVQLQESGGGSVQAGGSLRLSCTASGFTSGGSDMGWYRQAPGNECDLVSYISSDGSTYYADSVKGRFTISQDNAKNTVYLQMNSLKPEDTAVYYCAATDYGLGPPPSSTGQCYGMDYWGKGTQVTVSS
notes: as for B2
Regarding B6, in the assay with TSLP-Fc antigen, the Kd amounted to 0.115 nM, the off-rate (koff) came out at 0.000231 s⁻¹ and the on-rate (kon) was 2.02e+06 M⁻¹ s⁻¹.
